The values below come from patent US5534428.

Some results are limits rather than exact numbers.

The test system of this data set is SstI restriction endonuclease (Streptomyces stanford ATCC 29415). Briefly: cleavage_in_vitro. The settings on record: pSst105 crude extract; REact 2 buffer, 37 C, 1 h; assay substrate Ad-2 DNA per Example 1.7.

In turn, Adenovirus-2 DNA returned an activity (units per g cells) of over 400000.
